{"source": "the NTF2 design screens of Basanta et al. (2020)", "data": [{"test": "protease stability score; higher = more stable; yeast display proteolysis, trypsin and chymotrypsin;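 note: relative to predicted unfolded state with 0 unfolded-like and 1 meaning tenfold more protease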", "values": [{"sequence": "DHTHEAVEHLWKLLLHAIATGDFRILSHLLDPNVRIIFNGRTLVGRQSLEILLKRFDHEKIEEVRLRSTRIQGNFVDLDTEIIMVLHYDGKEYRIHTETHVHVVKVDGRWLIEELRID", "protease stability score": 2.62}, {"sequence": "DHRDEVFEELVRLIIHFLETGDWKSLEELADPNVRVTVFYNGRQDNNIGRKQWAEAWERLLHLLGIKHHHMHRYHIQGDKIHIIMNFVVNGQEFTVHIDITVFNGRMKSSRIHVE", "protease stability score": 1.27}, {"sequence": "DEEEELSKIAIRIFLKTLETGDERTLSELMDPHARLVINGREYHGREEASKEWHKWVEHLRVRDIKISSVRINEHELILHEKFEVEVNGRNLKLDVLIIVVKVDGRWVLRTNTIN", "protease stability score": 2.68}, {"sequence": "HELLEHVKKIIEMWNKLLHTGDEETLNKLLDPRVRIHVNGRELIGREAVETELREIRFEITYTHVKEVDVVGDKVHVNTLLDGEFRIGNFVIRTRTDARLHLLKVDGKWLLESLHVT", "protease stability score": 1.24}, {"sequence": "DEHEHLMLKVVLISIRALLTGDEDRFEHLADPHTRVEVNGVERHGREEYRKWLEHIRIKHIEVEESRAQGDFVHLNGRLRVSYGDKRFETETRWDWIIVDGKLKEMRIRIN", "protease stability score": 1.26}, {"sequence": "DEDRFETELAVDLWLRTLETGDEHFLHRLADPRVQLEYGNFHYHGRHEFLHWFHDLKRKYKNLRVDIRDVRDIDGRIILHTELKQGDKHIESKVYMEKYDGRWLIKSYEIR", "protease stability score": 0.971}, {"sequence": "DEEEELVREFLHRLKQSHETGDEKMYRENADPDVRIEVNGVTIHGMERATRWASEMRFKHEELRHIEVDENHVHIDGIVKGRINGRDVETKVHFHVRKVNGVWLLKRIKFT", "protease stability score": 0.956}, {"sequence": "DDEEDHVREMFKLHWDNLRTGDFDKWMNLADPNVRFRYIFNGVDFEYHGRDFVSQILLEIRIDRISIHHVNIFEGHSEIDAHEETTYNGKKTERKVHIELIVFNGRIHELHVEIR", "protease stability score": 0.682}, {"sequence": "SEEEEEFRRAVEFIERTIQTGDERILRELADPHVRLEIGDKHDHGRERVVEIWVSIFEKFKNARWEIRDVKVIDGKIYIDGSLIIDGKEHQTLIVSEKVNGRWHLKSIHIH", "protease stability score": 2.17}, {"sequence": "SEDQHDAEWALRLFVRLHETGDFEEIYRNADPNMRWFVNGVDSHGRENASKLLHKLMDDLGIDHVQIEHVELRVQGEKIIVHMRVTQVINGREVDSRIEVHMEKFDGKWELKHVELRIH", "protease stability score": 1.31}, {"sequence": "DEQEKFSKEMARLFIELRLTGDWETFTHLADPDVLWEIHVDGQSERNIGWESVRHAMEKERHELRIEHIHIRDVKIQGNKIHINTEVVGQFNGRRFIVDSRIHIHIVNGRIKDVTIEIE", "protease stability score": 1.16}, {"sequence": "SEEEKSSHLSIRLWLEMLITGDEDHLEHLADPNVRIEFEGREFHGRERAMHWMRHVSRHMRIEHIQIRRIHYFDGRLQLEGRIDGNINGRNHRFDSELEVTKIDGRWLLTSERIE", "protease stability score": 1.24}, {"sequence": "DETKEQSDEFIRIWVKARRTGDEHKLRRLIDPNVRVLINGKDLIGMDRALEIIEMFRKEFGIDHMHFTVRHVDIFNGVAISDFKVEINFNGREHEFTTHLVNLKIDGVWHTHSMEFH", "protease stability score": 0.546}, {"sequence": "SEEEESSEDATKLILRLWKTGDEHEWEHLFDPNVKVHIGDKHYVGMEIAVNTLHMLLRELGIDHIRLRDVKIFNGKVIIVFKIEVNGREFETHIISEKVNGRWRIKSVRFE", "protease stability score": 1.39}, {"sequence": "DELRKEAEEHAQHLLDLFDTGDWDRISELADPNTLVIIDINGVHINNVGWEEIRKLWEITRHHLRIEERRVESSRTFENRVELDVKDHIKVGNKKINLDSHITIDVVNGQMKRVDFQLR", "protease stability score": 2.04}, {"sequence": "HEDDHAVRKTIEDLLRSITTGDFELYSKLADPNTRFNIDGVNDVGMEIWVEKAIQHGWKVRHFHIRDVEVQGDKIDVDLKIDEDVNGRRIDIHVLLIIRKIDGRWILESVEHV", "protease stability score": 1.64}, {"sequence": "SEDEHAARWMTEDLERHTETGDEHRLTELIDPHAKLIFNGREYHGWEDYVKLFRELRVRRLEIKRVEVQGDKLFIDSTLRGNVNGREIDFEIHFVTHKINGRWKVHSVEII", "protease stability score": 1.69}, {"sequence": "SEVQELAERMFRFLLKVFETGNEDRLTELMDPNTLQIIGDKRNHGRDLYLRTVFEKVEHARMRIEFKEVHVINGQINVDGILWLEFDGRRIFFRVHLELTVVNGVLKEEHVTIH", "protease stability score": 1.56}, {"sequence": "DETDEYARNMMEIFVHLLATGNEEKMLEYMDPNTRHNFNGVVLHGRDVLREWWHRWLKEIRITRTRIDHVHTQGEYVHANTTVEGTIDGRKFELETRVHLHVVNGRIKESSIKLN", "protease stability score": 1.51}, {"sequence": "DEDTKIVEEAIRYHKHNIETGNEEYMDKLADPNTRLEINGVEFHGRESYNHWMRRVLEHWRFHDIKIDSVDVFNGRVRFYGRRIVKIGEFTMIFEITYISTKFNGRWILEEEENR", "protease stability score": 0.564}, {"sequence": "REDEEMAEKISEFIFHVLETGDEKSNHENIDPNARTHIGDKHSHGRENVTRMMDWWMHFLGVKHIEKKDLEIQGNFAFLHSISVVGDKTFEIDVTALKVNGQWVFKKFQVN", "protease stability score": 1.64}, {"sequence": "EELERDMDHWIELVIKLRKTGDWRQLAEMVDPNVRVDVNGVQIHGRESIEELLKRLGIDNVEVSLRDKDRQGEKMIVDMELHYNGKRHETKYIALKINGKWIFETITIR", "protease stability score": 1.38}, {"sequence": "SELEQELKHFVRLMKEIMRTGNWDLFERYADPNVRLEINGRDYIGRELASESLRHFVEEWGLDRVDVRVEHSSFQGDKAHSKINTDFNGQERTVHYDVLKVDGRWIVQRVRIE", "protease stability score": 2.06}, {"sequence": "NEREEHIRRLAELVRELIDTGDFDRLIKNADPNVRLEMEIGDKRIEHHGRERVHEQLEEFERRFKNATFIWKRIDVQGEKVLLDGTIRINGQEHEMHWDNQMFNGRIHSIRIDVR", "protease stability score": 2.2}, {"sequence": "SDVDEKMETFLTLLFELIYTGDEEVIEKLFDPNVQLDVNGQIYHGMENVIEFVHQVKRHIRWKTVQIRHYRTQGEWAYSQVEVTGTVNGQSHRFEIHIDIWVINGKLKHIKKDIE", "protease stability score": 2.01}, {"sequence": "SEDEERLRKFAEHMVNLWFTGNENELTKLIDPDTRIDIDGKELHGMELAFRVLQEHLEKLGVKHQEVRDVEIYGDKFILHWTLHVGDFTLRMEVRIVVINGRVKSMEFRTDHR", "protease stability score": 1.89}, {"sequence": "TEDEKRYDDLVRHMLEVHRTGDEDLLERLLDPNARFLIDGVEYHGREQALEIARELRITSIRIRRIEFYGDKVTMDTEIDGRVNGRRRDTRVKEIWLKVDGKWYLESMEIH", "protease stability score": 1.43}, {"sequence": "SDLEERSKSALHHLEEVLRTGDEDESRLMLDPNVRSVYDGREFHGRELVTELLSAFLKHLRIRDVKVERVEMNENEVRWDMKIDGTVGDKRYETHVHIIVVKVNGRWFLKEVRFG", "protease stability score": 1.39}, {"sequence": "DEDDELSRKAREFTSEVLRTGDEHSLLRMADPNTRNIVGNKEEHGWEHFEHFVREHWRRFGITNVDVKLEDLRVVDGRIEADMRVRVNGVERTWHFLIRKIDGKWRMESIEIR", "protease stability score": 0.416}, {"sequence": "DEDRKTVELAERLLKEMFDTGDEHTMRSLLDPNVRSNIGDWEFIGMDELSRWFEEVLKKLGVDHRSLKIKRSHTIGDKVILRSTLEFQQGDKTMKVDMRLVATKINGRWTVEEVEMK", "protease stability score": 0.81}, {"sequence": "DEQEESSRIIHKLIEHVAETGDWREWRKLLDPNTRLDVNGKEFHGWEKLLEHLEEHLDLLGVTKFTLRIQIRSMETQGNYVFIVGITHIHQGDKEIHRFTELIVLKINGKWLMKEIRFR", "protease stability score": 1.37}, {"sequence": "SEEEEHTRHMYELFWRILHTGDEKSFHELADPNVLLRVGDKNFHGREEAERFLHEYWERYKNMRIEMKTFDFQGNKVHSEGVININGVKIRSELELVVFDGRLHSVIVRHR", "protease stability score": 2.43}, {"sequence": "SEEDEERKHFLELWRESFETGDEDSSRDMADPNTRIHIGDKEQVGWEDVMHEMVKIKNARYHIVVHHVEIQGDKLTMDGEVRIDVNGRLIQIRTIIIARKYDGRWIVTHVHIH", "protease stability score": 1.3}, {"sequence": "SEIDEIAHKMAKEWTKDFVTGDEDHWKRLADPNTRVHINGVELHGRETSSEFKEKLRRHMGVDHMELRVRHVDLFNGRVHMETELIYRVGDKEIRTETHVDLDIVNGRIKEVRYEIR", "protease stability score": 0.734}, {"sequence": "SEDDERMERLTRILLEALETGDEDALRELIDPNARVDVNGVRDHGWKEVRKLLKELGVDHIKIHDHHIQGEKSRIDGEIHFNGKSERVTILWIMINGRVKFMSVKHT", "protease stability score": 1.79}, {"sequence": "DEQERLMRKLAEIIVEAIITGDWRSLAELFDPDVRIDINGRELIGRETWVTWLQEEYKRFKNQRIELHIRDVDVQGDYSHIDGHSRIVIGDFVFTTEIHTEIVIIDGRVHSMHHHVK", "protease stability score": 1.18}, {"sequence": "DEEDKHADWIMKQMVDLWTTGDEETSITLLDPNVKLHVDGRDIHGREKAMEWLRRFIVHLRIEIIIRHFDFQGNFARFHGELEIRIGDKSQVLETRLEIIVVNGKFRILEIELR", "protease stability score": 2.71}, {"sequence": "SDEEERLRDFVRRYMESMRTGDEDTWRTMLDPNVQVTINGRWEIGRESAYEFLWTVFTHLGVDHLELDHFHLYGEKIELDLTAFVNGQTKKVRVELIVIDGKLKSEKIHDK", "protease stability score": 1.12}, {"sequence": "DEEEKEIKEMLHEYLRAVETGDEHTLHRLMDPHVRIDVNGRQVVGREEWLKILRELGIKVSELIFRDIKFQGDKVNIDAEERLHYNGRTVTTRVTITAWKYDGRWTVQSKKVD", "protease stability score": 2.04}, {"sequence": "DEHEEMFTKLMRELIHIWLTGDEDILNHMADPNVLVEINGRREHGREALSRFLEKFKNVRIHLHSSTAIGEKSIIDTQININGKQIKVRVEIYMVDGKIKEIRLDIQ", "protease stability score": 1.29}, {"sequence": "DEDEEIAVKSYKKIVEDFFTGDEDSARRNADPDVLLRVGDKELHGWKHMTSWVHELRIHRIDIREIRVIGDKMFLHGEVDSEIDGKRLEFHLKLRMEKVDGRWIIRKIEIK", "protease stability score": 1.49}, {"sequence": "SEDEEEIKKAVEILLKELRTGDEDSFEKNLDPNARVHDENHRSHGREEVTKWFYEFRKKFKNARHTFEHIIVVGDKVINHMRVEIDGVTINSLWFIKKVDGRWVITSIHIN", "protease stability score": 2.26}, {"sequence": "DELEELIRKLAELFFEILRTGDEDKLRKLLDPHAKFTFIINGVIIDSIGRDFILKLHEDLWRRIKNVRMEYERVEVQGDKAYFRTRMNFNGKETETNLHLIIVDGKLKQESWEIE", "protease stability score": 0.738}, {"sequence": "SEEEDHAKEMFRILIENLITGDEDTLRKLIDPDVRFIYGDKLHVGWKDFREWQHRMDRRVKNMKIHVRDMRVYNGVSHAETEEHYNGKTVETEVHFKVIDGQLKHLEIRIH", "protease stability score": 0.188}, {"sequence": "DEEKKEIQKAVDLMRHLLVTGDENTLHHLLDPNVRLIVGDKFFHGREELIRVWSEEIESMGFDHVEMHVRHVRVIGDKADVQMEIRFDVNGREHSREFRVRLRKIDGQWVIKSIEIR", "protease stability score": 2.15}, {"sequence": "TEEKHMVLKIMEQVLQKWVTGDEDVLDHLLDPDDRLHLLQGDKFVEYHGWEEANKAWNEMRITHIELHDIRAQGDKVTSDGTLDGHFNGRRTRVRVRVHLIIVNGRLKEVELQLH", "protease stability score": 0.924}, {"sequence": "DEEERLSREILELNIEVLETGNEHVVRELLDPHVKMEVGDKEYHGREEFVTLFHHFGIDHFHIHEIRFIGNKAEMHVSSEINGRRFSILIIAHKVNGKWIMHTMHVE", "protease stability score": -0.037}, {"sequence": "SEDDETSSKAMHRILEIFETGDWKKLAKLADPNVRLRIDGQDVHGRELFTKIFRTELERFGHEQFEVHKSHEDVQGDKLELHTLVIYGDKRERIEIHSVKFNGVWLISTMRIDRH", "protease stability score": 0.935}, {"sequence": "SETEETVRRFFELLMKLEHTGNEEAIEKLFDPNMKWHQGEKERHGRETFSRMVSELRIHDFRLHRIEIYGDKAIIEGSVDGNFNGQRSEVEVTIHLEKIDGRWFIHSIHLS", "protease stability score": 1.15}, {"sequence": "TEDHRDIYRIVKLLIEFFKTGDFDSLRHLADPNTRLDIGDKHRHGMDLILKEYMDEMHELGVKHFDIKIHDVEIQGDKAQWDLRLHIKVGDKIIELRVILHAVKVNGKWILHKIEFI", "protease stability score": 1.38}]}]}
